According to publication PMC8442874:

Target: Soc-SpyCatcher fusion protein (displayed on T4 phage: T4-SpyCatcher phage) (bacteriophage T4)
Assay: co-sedimentation

Question: “S-ecto-6P-SpyTagged trimer (prefusion-stabilized hexa-Pro SARS-CoV-2 spike ectodomain with C-terminal SpyTag) (from UniProt P0DTC2 14-1208) (domain or fragment)” was tested. Which copies per capsid (S-trimers per phage capsid) did it give?
Answer: Its copies per capsid (S-trimers per phage capsid) is 100.
